From the supplement of paper PMC10126150
± gives the standard deviation of the averaged measurements.

system: ATP; test: switch fluorescence ratio, 500 uM ATP over buffer (Cy3 cluster intensity, sum of 5 cycles each) (fold (ratio)); higher = stronger signal-on switching upon ATP binding; sequences stand for … in TCGTCGGCAGCGTCAGATGTGTATAAGAGACAGTTTTTTTTTTTTTTTTTTTTTTTTT…TC; conditions: aptamer strand: ATP DNA aptamer (quencher-CACCTGGGGGAGTATTGCGGAGGAAGG + anchor), 100 nM annealed; ATP concentration: 500 uM
Summary of the method: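 Switching-strand clusters labelled with Cy3 on a modified Illumina MiSeq flow-cell were annealed to 100 nM quencher-labelled ATP aptamer, imaged in selection buffer, and re-imaged after 15 min with 500 uM ATP at 22 °C. This was done over five cycles with NaOH stripping and re-annealing in between. The fluorescence ratio is summed target-cycle over summed buffer-cycle Cy3 intensity per cluster, averaged per switch-domain sequence, excluding clusters outside 100-1000 RFU.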
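Further: ATP exposure 15 min at 22 °C before imaging.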

Point of comparison: ATGTAGAAAT, switch fluorescence ratio 1.05 ± 0.039. Against it:
- CAGAGGCCAG — within error, 0.993 ± 0.025
- CGGAATTGGG — lower, 0.9735 ± 0.0085
- CTATCCTATA — lower, 0.988 ± 0.022
- ATGCCAAAAG — within error, 1.01 ± 0.042
- CAAGGAGGGT — lower, 0.9726 ± 0.0079
- GATTGGCGCG — within error, 1.006 ± 0.0031
- GCGGGGACTT — within error, 0.984 ± 0.038
- GGGGGAAACG — within error, 0.989 ± 0.031
- TGGGATGTTC — within error, 0.989 ± 0.031
- GCGTCGGGCA — within error, 0.997 ± 0.027
- ATGGGGAGAG — within error, 1.02 ± 0.028
- AGGAGGGTGG — within error, 1.02 ± 0.044
- TTGGTTACGT — within error, 1 ± 0.039
- CTTGTACTAA — within error, 1.012 ± 0.0062
- ATTGGAGGGG — within error, 1.008 ± 0.0041
- CCTTAAGACT — within error, 1.07 ± 0.028
- AGAAAAATTT — within error, 1.19 ± 0.29
- GAAACGGATG — within error, 0.993 ± 0.041
- TATAGGGGGA — within error, 1.04 ± 0.024
- GGGATAAGGA — within error, 0.99 ± 0.044
- TTCGGGCGTC — within error, 1.01 ± 0.039
- GGAATCTGAT — within error, 0.996 ± 0.12
- GTCGATATTT — within error, 1.01 ± 0.026
- ATACCTGAGT — higher, 1.21 ± 0.034
- CATAGATGTC — within error, 0.989 ± 0.063
- GAGGGGGGCG — within error, 1.04 ± 0.085
- ACGAAAGGTT — within error, 1.034 ± 0.0089
- TGGGGTCTCT — within error, 0.985 ± 0.042
- ACGTGGAAGC — within error, 1.04 ± 0.043
- GCGTCAAGTG — within error, 0.988 ± 0.026
- AAATGTCCGG — within error, 1 ± 0.024
- TCCTGGGCGG — within error, 1.077 ± 0.0028
- GAAGTGAGTT — within error, 1 ± 0.018
- CGAGGGGTAC — higher, 1.4 ± 0.0095
- TTTATTTAAT — within error, 1.03 ± 0.035
- AGATATTCCG — lower, 0.987 ± 0.02
- TTGAAAGGTG — within error, 1.29 ± 0.24
- AAACTCTCCA — within error, 1.04 ± 0.02
- TACTTTGTGA — within error, 1.1 ± 0.15
- TCGGGGTGTA — lower, 1 ± 0.011
- CCTGTGCGGA — higher, 1.534 ± 0.013
- AGGATGGTTA — within error, 0.968 ± 0.076
- GTAGGGTCAG — within error, 0.994 ± 0.027
- TGCCGGCTGG — within error, 1.02 ± 0.053
- ACTCGCAGGG — within error, 1.073 ± 0.0016
- GCTAGGCGGA — within error, 1.0381 ± 0.0006
- GATTAAAATT — within error, 0.951 ± 0.064
- ATCGATTATC — lower, 0.988 ± 0.021
- GGCCCGTGCA — lower, 1.004 ± 0.0015
- TTTTACGATG — within error, 1 ± 0.012
- AAGCGGGCCT — within error, 1.02 ± 0.026
- CATGGAGCGA — higher, 1.24 ± 0.064
- AGTAGCAGCT — within error, 1.03 ± 0.048
- CTGGCACGGA — within error, 1 ± 0.063
- AACAGGCGGC — lower, 0.9872 ± 0.00069
- TTTACCGGTA — within error, 1.01 ± 0.023
- TAAGATTCGG — lower, 0.968 ± 0.015
- GGGTAAGAG — within error, 1.029 ± 0.0042
- GATAGTCGTG — lower, 0.994 ± 0.0056
- ATTCTTTGGC — within error, 1.04 ± 0.097
- TGGGGACGCT — lower, 0.9977 ± 0.004
- AATAACGATC — within error, 1.037 ± 0.0063
- AGTATTGGGT — within error, 0.998 ± 0.035
- AGGGTTATAG — lower, 0.982 ± 0.025
- TTGGGGTTAA — within error, 1.03 ± 0.058
- TTTTGAATCT — lower, 0.953 ± 0.033
- GTGATAATGT — lower, 0.981 ± 0.027
- CAGGTGAGAC — higher, 1.31 ± 0.04
- AAAGTTTTCC — within error, 1.08 ± 0.074
- AGGGCGACGC — lower, 0.912 ± 0.025
- AAAGACGTTT — within error, 1 ± 0.016
- AATGGAGGAG — within error, 1.01 ± 0.023
- AATACTGGTT — within error, 1.04 ± 0.021
- GTTTGTATAG — within error, 1 ± 0.03
- GATGAGGCGG — lower, 0.9832 ± 0.0015
- ACCGTAGGGG — lower, 0.973 ± 0.016
- GGAGGCGGGG — within error, 1.08 ± 0.18
- TGTCGCTGGG — within error, 1.02 ± 0.01
- AGATTATCGT — within error, 1.007 ± 0.0088
- TCAAAGAATA — within error, 1.02 ± 0.029
- ACCCTGTTGC — within error, 1.12 ± 0.072
- AAGCAGAGGC — lower, 1.004 ± 0.0031
- CATGGAATTG — within error, 0.989 ± 0.032
- TGTGAGTGTA — within error, 1.01 ± 0.025
- TTCTGGTTTG — within error, 0.975 ± 0.043
- GATTTGGTCA — lower, 0.9976 ± 0.0034
- TTAGTCAATT — lower, 0.97 ± 0.0044
- TAAGTTTGTG — within error, 0.996 ± 0.05
- CCAATTGAAG — within error, 1.02 ± 0.016
- TTTATTGGCT — within error, 1 ± 0.051
- AATTGTCATT — within error, 1.01 ± 0.019
- GTGATGAGCG — within error, 0.979 ± 0.037
- AATCGTTAAG — lower, 0.97 ± 0.015
- GAATTTCGGT — the same, 1.053 ± 0.0077
- TAGTTAGGGT — lower, 0.9959 ± 0.0093
- CGCCCGGAAT — higher, 1.97 ± 0.3
- CTGAAGGCCC — within error, 1.02 ± 0.019
- TGTGGTAGGT — within error, 1.01 ± 0.057
- TTGGGAAATT — within error, 1.02 ± 0.04
- ATTAATCCAT — lower, 0.987 ± 0.019
- TATAAGAGAG — within error, 1 ± 0.024
- GGTGGGTATA — within error, 1 ± 0.037
- TTTTAGAAGG — lower, 0.9797 ± 0.0062
- TTTACTATTT — within error, 0.988 ± 0.035
- ATTACGGAAA — within error, 1.74 ± 0.96
- TGAAGTAAGC — within error, 1.09 ± 0.12
- TAAGCCATCT — within error, 1.04 ± 0.054
- TGTGGATGTC — within error, 0.977 ± 0.038
- ACAGGGGAGA — within error, 1.03 ± 0.024
- TTTCTCGGCA — within error, 1.44 ± 0.42
- AATGGCTTTG — within error, 1.029 ± 0.0062
- ATGTCAGATT — within error, 1.01 ± 0.037
- GGGGGGCTAG — within error, 1 ± 0.058
- TATTTGCGCG — lower, 0.967 ± 0.037
- TATTTAAAGT — within error, 1.02 ± 0.049
- TTTTGGGCTT — within error, 1.12 ± 0.22
- CCGGGTGTGG — within error, 1.03 ± 0.028
- ATGGTATGAA — within error, 0.979 ± 0.035
- TAATAGTATA — within error, 1 ± 0.013
- ATGAGCATCT — lower, 0.996 ± 0.01
- GGGGATGTGC — within error, 1.01 ± 0.04
- GAGAAAAGTG — within error, 1.03 ± 0.086
- GTCCACAGGT — higher, 1.69 ± 0.056
- GCCGGTTTTC — within error, 1.03 ± 0.044
- TTTTAGTAGT — within error, 1.008 ± 0.01
- TAGGGGCTCG — within error, 0.999 ± 0.032
- CAGTACCTAA — within error, 1.039 ± 0.0019
- TTAAGGATA — within error, 1.01 ± 0.036
- CCAATTTGAA — lower, 0.9913 ± 0.0081
- CTAATGGACC — within error, 1.01 ± 0.03
- TTCCTACAAG — within error, 1.06 ± 0.014
- CGGGGTCTGT — within error, 0.999 ± 0.022
- GTCGGATGTG — lower, 0.954 ± 0.044
- TTTGCCGGGA — within error, 1.01 ± 0.019
- TGAATCTAGA — within error, 1.01 ± 0.019
- GACACTAAGG — within error, 1.01 ± 0.038
- ATCTATGGTT — lower, 0.9669 ± 0.0036
- AGGATCGACG — lower, 0.925 ± 0.013
- CCGCGCACCG — higher, 1.73 ± 0.053
- TTGATTGTTT — lower, 0.987 ± 0.016
- AGTATGTGTC — within error, 1.01 ± 0.042
- GATGATAACG — lower, 0.99754 ± 0.00091
- CCGGGGTGGG — lower, 0.9964 ± 0.0055
- TGTTGTCGGT — within error, 0.988 ± 0.063
- ATTAAACAG — the same, 1.05 ± 0.07
- TGATTTTTAC — within error, 1.08 ± 0.092
- GTAAGGAGAG — within error, 1.02 ± 0.017
- GAAGAGGAGG — within error, 1.04 ± 0.011
- AAAAGGGGGT — within error, 1.02 ± 0.049
- TTTTTGAGGA — within error, 0.995 ± 0.017
- TCTGGGCCAT — within error, 1.29 ± 0.43
- GGGTTAGGAG — within error, 0.99 ± 0.029
- ACTGTTAGGC — within error, 1.01 ± 0.056
- TGGGGTGGCT — lower, 0.985 ± 0.015
- CGGGGATCTA — within error, 1 ± 0.018
- AGGGGATTAT — within error, 0.998 ± 0.038
